Experimental data from IntAct's records for PubMed 25416944.

Biological target: vhl_human VHL (UniProt P40337)
Sequence (P40337 whole entry, looked up): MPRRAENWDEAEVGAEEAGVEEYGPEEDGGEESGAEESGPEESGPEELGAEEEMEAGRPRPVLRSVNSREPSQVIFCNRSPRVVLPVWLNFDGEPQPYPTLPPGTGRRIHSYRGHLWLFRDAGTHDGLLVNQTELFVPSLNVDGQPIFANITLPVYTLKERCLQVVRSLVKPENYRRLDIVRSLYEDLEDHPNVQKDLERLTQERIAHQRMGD

Chain of T-complex protein 1 subunit alpha (Saccharomyces cerevisiae), P12612 L326A (P12612 whole entry L326A, one chain of several): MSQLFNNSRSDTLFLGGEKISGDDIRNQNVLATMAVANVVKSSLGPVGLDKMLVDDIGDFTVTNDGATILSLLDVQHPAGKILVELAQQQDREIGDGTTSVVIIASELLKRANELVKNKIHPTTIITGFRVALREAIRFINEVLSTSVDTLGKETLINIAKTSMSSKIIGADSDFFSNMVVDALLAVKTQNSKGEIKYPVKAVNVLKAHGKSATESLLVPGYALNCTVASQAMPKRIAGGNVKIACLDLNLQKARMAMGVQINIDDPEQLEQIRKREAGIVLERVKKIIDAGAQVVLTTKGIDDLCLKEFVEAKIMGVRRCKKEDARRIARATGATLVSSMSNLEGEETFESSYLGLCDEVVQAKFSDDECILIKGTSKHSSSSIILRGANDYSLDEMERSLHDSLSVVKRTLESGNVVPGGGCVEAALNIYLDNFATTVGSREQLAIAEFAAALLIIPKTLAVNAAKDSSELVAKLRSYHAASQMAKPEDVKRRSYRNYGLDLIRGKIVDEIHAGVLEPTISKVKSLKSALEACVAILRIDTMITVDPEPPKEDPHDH
Chain of T-complex protein 1 subunit alpha (Saccharomyces cerevisiae), P12612 R319A (P12612 whole entry R319A, one chain of several): as the sequence (P12612 whole entry L326A, one chain of several) above, with R319A, A326L counted along it
Chain of T-complex protein 1 subunit alpha (Saccharomyces cerevisiae), P12612 V311A (P12612 whole entry V311A, one chain of several): as the sequence (P12612 whole entry L326A, one chain of several) above, with V311A, A326L counted along it
Chain of T-complex protein 1 subunit alpha (Saccharomyces cerevisiae), P12612 L305A (P12612 whole entry L305A, one chain of several): as the sequence (P12612 whole entry L326A, one chain of several) above, with L305A, A326L counted along it

Row | Substance | effect of a mutation on the interaction
1 | T-complex protein 1 subunit alpha (Saccharomyces cerevisiae), P12612 L326A | decreasing interaction strength
2 | T-complex protein 1 subunit alpha (Saccharomyces cerevisiae), P12612 L305A | decreasing interaction strength
3 | T-complex protein 1 subunit alpha (Saccharomyces cerevisiae), P12612 V311A | decreasing interaction strength
4 | T-complex protein 1 subunit alpha (Saccharomyces cerevisiae), P12612 R319A | decreasing interaction strength
